Like-named read-outs stand apart in the source and are kept apart here.
B1: VAPWNSRAL peptide (peptide)
peptide: VAPWNSRAL
B2: VAPWNSDAL peptide (peptide)
peptide: VAPWNSDAL
B3: VAPWNSFAL peptide (peptide)
peptide: VAPWNSFAL
B4: VAPWNSLSL (peptide)
chain: VAPWNSLSL

Tests used:
[1] = target: T1, HLA-Cw*0102 on TAP deficient 721.174 cells (human (endogenous in 721.174)); experiment: FACS
[2] = target: T1, HLA-Cw*0102 on TAP deficient 721.174 …; experiment: FACS; remark: listed apart in the source

Binder | Kd [1] [µM] | Kd [2] [µM]
B1 | 0.19 | –
B2 | 0.14 | –
B3 | 0.14 | –
B4 | – | 0.18

From article PMC4324016 (2014)
